The numbers were not newly measured in PMC8151241, which cites them from elsewhere.

A word on the Kd: it is the free concentration of one partner at which half of the binding sites on the other are occupied at equilibrium, for simple one-to-one binding.

In data set [1] the target is CP12-GAPDH complex (Chlamydomonas reinhardtii) (UniProt A6Q0K5).
Data set [2] addresses GAPDH (Chlamydomonas reinhardtii) (UniProt P50362).
In data set [3] the target is PRK (Chlamydomonas reinhardtii) (UniProt P19824).

Sequence of UniProt P50362 (P50362 35-374): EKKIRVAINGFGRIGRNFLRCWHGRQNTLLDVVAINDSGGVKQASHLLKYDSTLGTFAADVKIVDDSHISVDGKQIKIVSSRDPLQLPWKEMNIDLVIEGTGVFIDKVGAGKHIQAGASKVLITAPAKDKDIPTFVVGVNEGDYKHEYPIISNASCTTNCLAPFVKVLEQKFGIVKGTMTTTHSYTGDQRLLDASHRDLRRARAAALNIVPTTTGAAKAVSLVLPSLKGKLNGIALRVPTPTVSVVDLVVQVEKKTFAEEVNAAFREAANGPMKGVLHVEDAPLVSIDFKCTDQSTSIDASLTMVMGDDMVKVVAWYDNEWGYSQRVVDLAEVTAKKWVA

In the case of PRK (from UniProt P19824), in data set [1], the dissociation constant Kd was 60 nM.

As to CP12 (from UniProt A6Q0K5), the values for the Kd in data set [2] and in data set [3] were 0.4 nM and 1300 nM, respectively.
